Test results: patent publication US20020142355A1 (BAYLOR COLLEGE OF MEDICINE, published 2002)

B1: adenovirus type 5 fiber protein joined to full length PSTCD (other)
chain: MKRARPSEDTFNPVYPYDTETGPPTVPFLTPPFVSPNGFQESPPGVLSLRLSEPLVTSNGMLALKMGNGLSLDEAGNLTSQNVTTVSPPLKKTKSNINLEISAPLTVTSEALTVAAAAPLMVAGNTLTMQSQAPLTVHDSKLSIATQGPLTVSEGKLALQTSGPLTTTDSSTLTITASPPLTTATGSLGIDLKEPIYTQNGKLGLKYGAPLHVTDDLNTLTVATGPGVTINNTSLQTKVTGALGFDSQGNMQLNVAGGLRIDSQNRRLILDVSYPFDAQNQLNLRLGQGPLFINSAHNLDINYNKGLYLFTASNNSKKLEVNLSTAKGLMFDATAIAINAGDGLEFGSPNAPNTNPLKTKIGHGLEFDSNKAMVPKLGTGLSFDSTGAITVGNKNNDKLTLWTTPAPSPNCRLNAEKDAKLTLVLTKCGSQILATVSVLAVKGSLAPISGTVQSAHLIIRFDENGVLLNNSFLDPEYWNFRNGDLTEGTAYTNAVGFMPNLSAYPKSHGKTAKSNIVSQVYLNGDKTKPVTLTITLNGTQETGDTTPSAYSMSFSWDWSGHNYINEIFATSSYTFSYIAQEKLKVTVNGTAYDVDVDVDKSHENPMGTILFGGGTGGAPAPAAGGAGAGKAGEGEIPAPLAGTVSKILVKEGDTVKAGQTVLVLEAMKMETEINAPTDGKVEKVLVKERDAVQGGQGLIKIG
modifications: biotin on lysine 89 of PSTCD (numbering of FIG. 1)
notes: also called fiber-PSTCD, full length form
B2: adenovirus type 5 fiber protein with the C-terminal 70 amino acid PSTCD domain (biotinylated) (other)
chain: MKRARPSEDTFNPVYPYDTETGPPTVPFLTPPFVSPNGFQESPPGVLSLRLSEPLVTSNGMLALKMGNGLSLDEAGNLTSQNVTTVSPPLKKTKSNINLEISAPLTVTSEALTVAAAAPLMVAGNTLTMQSQAPLTVHDSKLSIATQGPLTVSEGKLALQTSGPLTTTDSSTLTITASPPLTTATGSLGIDLKEPIYTQNGKLGLKYGAPLHVTDDLNTLTVATGPGVTINNTSLQTKVTGALGFDSQGNMQLNVAGGLRIDSQNRRLILDVSYPFDAQNQLNLRLGQGPLFINSAHNLDINYNKGLYLFTASNNSKKLEVNLSTAKGLMFDATAIAINAGDGLEFGSPNAPNTNPLKTKIGHGLEFDSNKAMVPKLGTGLSFDSTGAITVGNKNNDKLTLWTTPAPSPNCRLNAEKDAKLTLVLTKCGSQILATVSVLAVKGSLAPISGTVQSAHLIIRFDENGVLLNNSFLDPEYWNFRNGDLTEGTAYTNAVGFMPNLSAYPKSHGKTAKSNIVSQVYLNGDKTKPVTLTITLNGTQETGDTTPSAYSMSFSWDWSGHNYINEIFATSSYTFSYIAQEEGEIPAPLAGTVSKILVKEGDTVKAGQTVLVLEAMKMETEINAPTDGKVEKVLVKERDAVQGGQGLIKIG
modifications: biotin on lysine 89 of PSTCD (numbering of FIG. 1, full length PSTCD)
notes: also called fiber/PSTCD fusion protein; fiber of the biotinylated adenovirus

Molecular target: the molecule itself
Assay: Western blot of transfected cells, self-association (trimer) of the fiber fusion

Protein | binding result
B1 | no binding
B2 | binds
